Molecular target: full domain protein A ligand (immobilised on resin) (UniProt P38507)
Assay: protein A affinity chromatography, pH gradient elution, POROS MabCapture A Select (Example 5-4)

GLP-1-Fc (from UniProt P01275 98-128) (Fc fusion)
Peak 1 End pH (elution): 3.95 pH
Peak 1 start pH (elution): 4.17 pH

— patent US20230212217A1
